Assay results published in the supplement of paper PMC7125110.
± gives the standard error. This sample holds only a part of the variants without activity.

B1: glmS ribozyme (parent)
chain: AUAAAAGCGCCAGAACUACAGAAAUGUAGUUGACGAGGAGGAGGUUUAUCGAAUUUUCGGCGGAUGCCUCCAAA

Key:
Details in all cases: with glucosamine-6-phosphate
glucosamine-6-phosphate [1] = variants of: B1; assay: self-cleavage kobs at 40 uM GlcN6P; higher = faster cleavage; RNA array
In short: (§1)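 Over ~14 h at 37 °C, tiles were imaged as glucosamine-6-phosphate (40 μM to 10 mM) in HEPES/KCl/Mg(OAc)2 buffer flowed across sequenced MiSeq chips. The chips carried barcoded ribozyme variants transcribed in situ by E. coli RNA polymerase and tracked with a hybridised Cy3 probe. After normalisation to baseline and to non-cleaving reference variants, one- or two-exponential decay fits of per-tile medians gave kobs. kcat and KM followed from weighted Michaelis–Menten fits across concentrations.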

glucosamine-6-phosphate [2] = variants of: B1; assay: self-cleavage kobs at 640 uM GlcN6P; higher = faster cleavage; RNA array
In short: as §1

glucosamine-6-phosphate [3] = variants of: B1; assay: self-cleavage kobs at 10000 uM GlcN6P; higher = faster cleavage; RNA array
In short: as §1

glucosamine-6-phosphate [4] = variants of: B1; assay: self-cleavage kobs at 160 uM GlcN6P; higher = faster cleavage; RNA array
In short: as §1

glucosamine-6-phosphate [5] = variants of: B1; assay: self-cleavage kobs at 2500 uM GlcN6P; higher = faster cleavage; RNA array
In short: as §1

Variant | self-cleavage kobs at 40 uM GlcN6P (glucosamine-6-phosphate [1]) [s⁻¹] | self-cleavage kobs at 640 uM GlcN6P (glucosamine-6-phosphate [2]) [s⁻¹] | self-cleavage kobs at 10000 uM GlcN6P (glucosamine-6-phosphate [3]) [s⁻¹] | self-cleavage kobs at 160 uM GlcN6P (glucosamine-6-phosphate [4]) [s⁻¹] | self-cleavage kobs at 2500 uM GlcN6P (glucosamine-6-phosphate [5]) [s⁻¹]
A15U G62C | < 1e-05 | < 1e-05 | < 1e-05 |  | 
G7U C8G U47G C58U C61G U69G | 0.000436 ± 0.00012 |  | 0.000464 ± 0.00012 |  | 
U47C G66C C67U | < 1e-05 |  |  |  | 
C10U A42U | < 1e-05 | < 1e-05 | < 1e-05 | < 1e-05 | < 1e-05
U31A U49G C71U | < 1e-05 |  |  |  | 
C16U U30G | 4.04e-05 ± 1.4e-05 | 0.000244 ± 6.5e-05 | 0.00235 ± 0.00062 | 6.14e-05 ± 1.5e-05 | 0.000944 ± 0.00032
A42U G60C C67A | < 1e-05 |  | < 1e-05 |  | 
A15G A52G C58G | < 1e-05 |  | 8.04e-05 ± 2.1e-05 |  | 
G7U G41U A48U | < 1e-05 |  |  |  | 
G29U A33U G38C G40A | < 1e-05 |  |  |  | 
A42U U65A | < 1e-05 |  | 4.89e-05 ± 1.2e-05 | < 1e-05 | 
G29U A52U U65A | < 1e-05 |  |  |  | 
G9C C67G | < 1e-05 | < 1e-05 | < 1e-05 | < 1e-05 | < 1e-05
G7C U56G | < 1e-05 | < 1e-05 | < 1e-05 | < 1e-05 | < 1e-05
G7U G13U A53G | < 1e-05 |  |  |  | 
A36G G41C G43C A48G | < 1e-05 |  | < 1e-05 |  | < 1e-05
C11U G13A A33C A53U | < 1e-05 |  |  |  | 
C11U C34A | < 1e-05 | < 1e-05 |  |  | 
A33C G63U | < 1e-05 | < 1e-05 | < 1e-05 |  | < 1e-05
G35C G60A | < 1e-05 | < 1e-05 | < 1e-05 |  | 
U31G C50G C67U | 8.62e-05 ± 1.8e-05 |  | 0.000109 ± 2.3e-05 |  | 
A6C U47C U54A G59A C70U | < 1e-05 |  |  |  | 
C11U U49C G51U | < 1e-05 |  |  |  | 
C10U G37A G44A U57C | < 1e-05 |  |  |  | 
C8G C71U | < 1e-05 | < 1e-05 | < 1e-05 | < 1e-05 | < 1e-05

Variant | self-cleavage kobs at 40 uM GlcN6P (glucosamine-6-phosphate [1]) [s⁻¹] | self-cleavage kobs at 640 uM GlcN6P (glucosamine-6-phosphate [2]) [s⁻¹] | self-cleavage kobs at 10000 uM GlcN6P (glucosamine-6-phosphate [3]) [s⁻¹] | self-cleavage kobs at 160 uM GlcN6P (glucosamine-6-phosphate [4]) [s⁻¹] | self-cleavage kobs at 2500 uM GlcN6P (glucosamine-6-phosphate [5]) [s⁻¹]
A6U G38A G40U G51C | < 1e-05 |  |  |  | 
G13A A15C G38U A48G A52C | < 1e-05 |  | < 1e-05 |  | 
C10U G41U | < 1e-05 | < 1e-05 | < 1e-05 | < 1e-05 | < 1e-05
A36G U49G | < 1e-05 | < 1e-05 |  |  | 
A15U C68A C71A | < 1e-05 |  |  |  | 
G35U A48G | < 1e-05 | < 1e-05 | < 1e-05 | < 1e-05 | 
C8A A36U A64U C70U | < 1e-05 | < 1e-05 |  |  | < 1e-05
C34U C61A C67U | 0.00014 ± 3.8e-05 | 0.000388 ± 0.00011 | 0.000236 ± 6.1e-05 |  | 5.38e-05 ± 2.6e-05
C16U A33U G38A G40A | < 1e-05 |  | < 1e-05 |  | 
C10U G13A C68A | < 1e-05 |  |  |  | 
C11G G59C | 5.21e-05 ± 2.3e-05 |  | 0.000764 ± 0.00016 |  | 
C16A A33U G38C | < 1e-05 |  |  |  | < 1e-05
A6G G43A | < 1e-05 | < 1e-05 | < 1e-05 | < 1e-05 | < 1e-05
G9A U31G | < 1e-05 |  |  | < 1e-05 | < 1e-05
G13C G40U | < 1e-05 | < 1e-05 |  | < 1e-05 | 
A6U C11U G32U | < 1e-05 |  | < 1e-05 |  | 
C10U U45A G51U C67A | < 1e-05 |  |  |  | 
G41U C68U C71A | < 1e-05 |  |  |  | 
A6G G32U U46G | < 1e-05 |  | < 1e-05 |  | 
G44C G62C | < 1e-05 | < 1e-05 | < 1e-05 | < 1e-05 | < 1e-05
A33C C50G C71U | 0.000772 ± 0.00027 | 0.000204 ± 5.8e-05 | 5.96e-05 ± 2.9e-05 |  | 0.000589 ± 0.00017
A42G U55G G62C | < 1e-05 |  | < 1e-05 | < 1e-05 | < 1e-05
A39U U69C | 0.000261 ± 7.1e-05 |  | 0.0107 ± 0.0039 |  | 0.0075 ± 0.0032
G13U G35U | < 1e-05 | < 1e-05 | < 1e-05 | < 1e-05 | < 1e-05
A15U A36C U46G | < 1e-05 |  | < 1e-05 |  | 

Variant | self-cleavage kobs at 40 uM GlcN6P (glucosamine-6-phosphate [1]) [s⁻¹] | self-cleavage kobs at 640 uM GlcN6P (glucosamine-6-phosphate [2]) [s⁻¹] | self-cleavage kobs at 10000 uM GlcN6P (glucosamine-6-phosphate [3]) [s⁻¹] | self-cleavage kobs at 160 uM GlcN6P (glucosamine-6-phosphate [4]) [s⁻¹] | self-cleavage kobs at 2500 uM GlcN6P (glucosamine-6-phosphate [5]) [s⁻¹]
G7A G9U C16A G37U U65C | < 1e-05 |  |  |  | 
A39U U65C | 8.42e-05 ± 1.7e-05 | 0.00114 ± 0.00015 |  | 0.000124 ± 2.7e-05 | 0.00149 ± 0.00024
G9C C10A U56A | < 1e-05 | < 1e-05 |  |  | < 1e-05
C10U A33G | < 1e-05 | < 1e-05 | < 1e-05 | < 1e-05 | 
U31G C34U A42G | < 1e-05 | < 1e-05 | < 1e-05 | < 1e-05 | < 1e-05
A52C A64G | < 1e-05 | < 1e-05 |  | < 1e-05 | 
G7U G32U U49A | < 1e-05 | < 1e-05 | < 1e-05 |  | < 1e-05
U45A G60U C68G C70U | < 1e-05 |  |  |  | 
A48U C61U | < 1e-05 | < 1e-05 |  |  | 
C16A U31C A42G G44U C70G | < 1e-05 |  |  |  | 
A33G G40C U56G | < 1e-05 |  |  |  | 
A39U A42C U54C U65C | < 1e-05 | < 1e-05 |  |  | < 1e-05
G29U U55G | 4.62e-05 ± 1.1e-05 | 0.000282 ± 5.3e-05 | 0.00239 ± 0.0003 |  | 0.00177 ± 0.00029
G9A G38A | < 1e-05 |  | < 1e-05 |  | 
G13U A36U | < 1e-05 | < 1e-05 | < 1e-05 | < 1e-05 | < 1e-05
G29A U49A | < 1e-05 | < 1e-05 |  | < 1e-05 | 
C8A A64U | < 1e-05 | < 1e-05 | < 1e-05 | < 1e-05 | < 1e-05
G38A G40A | < 1e-05 | < 1e-05 | < 1e-05 | < 1e-05 | < 1e-05
C34U U69A | 0.000116 ± 2.4e-05 | 0.00034 ± 0.00012 |  |  | 
A15G G41U | 0.000204 ± 2.3e-05 | 0.000507 ± 8.7e-05 |  | 0.000282 ± 4.5e-05 | 0.00155 ± 0.00029
C34A G60U C68A | < 1e-05 | < 1e-05 |  |  | < 1e-05
G63A A64C | < 1e-05 | < 1e-05 |  | < 1e-05 | < 1e-05
C11G A64U C67A | < 1e-05 |  | < 1e-05 |  | 
G7U G13A C67U | < 1e-05 |  |  |  | 
G29A G37C U69C | < 1e-05 |  | < 1e-05 |  | 

Variant | self-cleavage kobs at 40 uM GlcN6P (glucosamine-6-phosphate [1]) [s⁻¹] | self-cleavage kobs at 640 uM GlcN6P (glucosamine-6-phosphate [2]) [s⁻¹] | self-cleavage kobs at 10000 uM GlcN6P (glucosamine-6-phosphate [3]) [s⁻¹] | self-cleavage kobs at 160 uM GlcN6P (glucosamine-6-phosphate [4]) [s⁻¹] | self-cleavage kobs at 2500 uM GlcN6P (glucosamine-6-phosphate [5]) [s⁻¹]
G32U C34A A48U C70A | < 1e-05 |  |  |  | 
A6C A12C G59C | < 1e-05 | < 1e-05 | < 1e-05 |  | 
G13A C50G C58A C70U | 6.62e-05 ± 1.6e-05 |  | 9.7e-05 ± 2.5e-05 |  | 0.000539 ± 6.7e-05
G7U A52U | < 1e-05 | < 1e-05 | < 1e-05 |  | < 1e-05
A6C G37C A39G G40U G41U | < 1e-05 | < 1e-05 |  | < 1e-05 | < 1e-05
A14C U31G U47G | 0.00012 ± 1.8e-05 |  | 0.00313 ± 0.00068 |  | 
A33U C70A | < 1e-05 |  |  |  | 
G21U G40C | 0.000253 ± 6.1e-05 |  | 0.00248 ± 0.00053 |  | 
G32A A33C C68G C71G | 5.72e-05 ± 1.6e-05 |  | 8.64e-05 ± 2e-05 |  | 
A36G U45G G51U U54C U56A C68A | < 1e-05 |  |  |  | 
A39C A48U G59U | < 1e-05 |  | < 1e-05 |  | 
A42G U45A U49C | < 1e-05 |  |  |  | 
G40A G43A | < 1e-05 | < 1e-05 | < 1e-05 |  | < 1e-05
G7U C58A C67G C70U | 9.59e-05 ± 3.4e-05 |  |  |  | 
G40U G51U G62A C68U | < 1e-05 |  | < 1e-05 |  | 
G13C G41U C70U | < 1e-05 |  |  |  | 
C8A C11G G38U G60A | < 1e-05 | < 1e-05 |  | < 1e-05 | 
A42C C50U U69A | < 1e-05 |  | < 1e-05 |  | 
G32A U54G G59A | < 1e-05 |  |  |  | 
G35A U45A C67U | < 1e-05 |  | < 1e-05 |  | 
G62U G63U C68G | < 1e-05 |  |  |  | 
G35A U45C C71U | < 1e-05 |  | < 1e-05 |  | < 1e-05
G40U G44A | < 1e-05 |  | < 1e-05 | < 1e-05 | 
A14G G51C | < 1e-05 | < 1e-05 | < 1e-05 |  | 
C11A G44U G59U C67A | 0.000322 ± 8.1e-05 |  | 0.00946 ± 0.002 |  | 
